What was measured:
[1] = target: SARS-CoV-2 Spike Protein (RBD)(R319-F541).mFc (SARS-CoV-2); test: Luminex, supernatant
[2] = target: SARS-CoV-2 Spike Protein (RBD)(R319-F541).hFc (SARS-CoV-2); test: Luminex, supernatant
[3] = target: receptor binding domain (RBD) portion of the SARS-CoV-2 Spike protein (amino acids Arg319-Phe541) ex (SARS-CoV-2)
[4] = target: Human SARS Coronavirus Spike S1 Subunit Protein (His Tag) (Sino 40150-V08B1) (Human SARS Coronavirus, UniProt P59594 14-667); test: Luminex, supernatant

B1: mAb10971 (antibody, V domains shown)
VH: EVQLVESGGGLIQPGGSLRLSCAASGVTVSSNYMSWVRQAPGKGLEWVSVIYSGGSTFYSDSVKGRFSISRDNSKNTLYLQMNSLRAEDTAVYYCARDLYYYGMDVWGQGTTVTVSS
VL: DIQLTQSPSFLSASVGDRVTITCRASQGISTYLAWYQQKPGKAPKLLIYAASTLQSGVPSRFSGSGSGTEFTLTISSLQPEDFATYYCQQLDSYPGLTFGGGTKVEIKR
B1 showed an MFI [1] of 28700 MFI and an MFI [2] of 30000 MFI.

B2: mAb10957 (antibody, V domains shown)
VH: EVQLVESGGGLVQPGGSLRLSCAASGVTVSSNYMSWVRQAPGKGLEWVSVIYSGGSTFYADSVKGRFTISRDNSKNTLFLQMNSLRIEDTAVYYCARDLGPYGMDVWGQGTTVTVSS
VL: DIQLTQSPSFLSASVGDRVTITCRASQGISSYLAWYQQKPGKAPKLLIYAASTLQSGVPSRFSGSGSGTQFILTISSLQPEDFATYYCQQLNSYPGFTFGPGTKVDIKR
Binder B2 has an MFI [1] of 18700 MFI and an MFI [2] of 22600 MFI.

B3: mAb10989 (antibody, V domains shown)
VH: QVQLVQSGAEVKKPGASVKVSCKASGYIFTGYYMHWVRQAPGQGLEWMGWINPNSGGANYAQKFQGRVTLTRDTSITTVYMELSRLRFDDTAVYYCARGSRYDWNQNNWFDPWGQGTLVTVSS
VL: QSALTQPASVSGSPGQSITISCTGTSSDVGTYNYVSWYQQHPGKAPKLMIFDVSNRPSGVSDRFSGSKSGNTASLTISGLQAEDEADYYCSSFTTSSTVVFGGGTKLTVLG
In the case of B3, the MFI [1] is reported as 19600 MFI and the MFI [2] is reported as 22400 MFI.

B4: mAb11006 (antibody, V domains shown)
VH: EVQLVESGGGLVQPGGSLRLSCAASGFIVSRNYMSWVRQAPGKGLEWVSVIYSGGSTFYADSVKGRFTISRHNSKNTLYLQMNSLKAEDTAVYYCARELRGYFDYWGQGTLVTVSS
VL: DIQLTQSPSFLSASVGDRVTITCWASQGISSYLAWYQQKPGKAPKLLIYAASTLQSGVPSRFSGSGSGTEFTLTISSLQPEDFATYYCQLLNSYPYTFGQGTKLEIKR
Binder B4 has an IC50 [3] of 0.22 nM.

B5: mAb10915 (antibody, V domains shown)
VH: EVQLVESGGGLVQPGGSLRLSCAASGFTVSSNYMNWVRQAPGKGLEWVSVIYSGGSTFYADSVKGRFTISRHNSKNTLYLQMNSLRPEDTAVYYCARDLGGYFDYWGQGTLVTVSS
VL: not shown
With B5 the MFI [1] was 31800 MFI, the MFI [2] was 32400 MFI and the MFI [4] was 21 MFI.

B6: mAb11008 (antibody, V domains shown)
VH: EVQLVESGGGLVQPGGSLRLSCAASGFTVSSNYMTWVRQAPGKGLEWVSVIYSGGSTFYADSVKGRFTISRHNSENTLYLQMNSLRAEDTAVYYCARDLAAAGTDYWGQGALVTVSS
VL: DIQLTQSPSFLSASVGDRVTITCWASQGISSYLAWYQQKPGKAPKLLIYAASTLQSGVPSRFSGSGSGTEFTLTISSLQPDDFATYYCQHLNSYLYTFGQGTKLEIKR
For B6, the IC50 [3] was 1.49 nM.

B7: mAb10965 (antibody, V domains shown)
VH: EVQLVESGGGLIQPGGSLRLSCAASVFTVSYNYMSWVRQAPGKGLEWVSVIYSGGSTYYADSVKGRFTISRDNSKNTLYLQMNSLRAEDTAVYYCARALPGWGGSFEYFDYWGQGTLVTVSS
VL: not shown
Work on B7 yielded an MFI [1] of 27100 MFI and an MFI [2] of 29600 MFI.

B8: mAb11010 (antibody, V domains shown)
VH: QVQLVESGGGVVQPGRSLRLSCAASGFTFSSYGMHWVRQAPGKGLEWVAVISYDGSYKYYADSVKGRFTISRDNSKNTLYLQMNSLRAEDTAVYYCAIDGGTVTTIFDYWGQGTLVTVSS
VL: not shown
With B8 the IC50 [3] was 0.147 nM.

B9: mAb10932 (antibody, V domains shown)
VH: EVQLVESGGGLVQSGGSLRLSCAASGLTVSSNYMSWVRQAPGKGLEWVSVIYSGGSTFYSDSVKGRFTISRHNSKNTLYLQMNSLRAEDTAVYYCARARGDAFDIWGQGTMVTVSS
VL: not shown
Binder B9 has an MFI [1] of 30600 MFI and an MFI [2] of 30600 MFI.

B10: mAb10969 (antibody, V domains shown)
VH: QVQLVESGGGVVQPGRSLRLSCAASGFTFSSYAMHWVRQAPGKGLEWVAVISYDGSNKYYADSVKGRFTISRDNSKNTLYLQMNSLRAEDTAVYYCARDGRTITMVRGVIDDAFDIWGQGTMVTVSS
VL: not shown
B10 gave an MFI [1] of 31400 MFI.

B11: mAb10966 (antibody, V domains shown)
VH: EVQLVESGGGLVQPGGSLRLSCAASGLTVSSNYMSWVRQAPGKGLEWVSVIYSGGSTFYADSVKGRFTISRDNSKNTLYLQMNSLRPEDTAVYYCAREGRIAATGYGMDVWGQGTTVTVSS
VL: not shown
B11 was tested, and the MFI [1] was 30400 MFI and the MFI [2] was 30800 MFI.

B12: mAb10964 (antibody, V domains shown)
VH: QVQLQESGPGLVKPSETLSLTCTVSGGSINNYYWIWIRQPPGKGLEWIGYIYHSGSTNYNPSLKSRVTISVDTSKNQFSLKVSSVTAADTAVYYCANMVRGVYEDDYWGQGTLVTVSS
VL: DIQMTQSPSSLSASVGDRVTITCRASQSISNYLNWYQQKPGKAPKLLIFAASSLRSGVPSRFSGSGSGTDFTLTISSLHPEDFATYYCQQNYNTPLTFGPGTKVDIKR
For B12, the MFI [1] was 32400 MFI and the MFI [2] was 33100 MFI.

B13: mAb10967 (antibody, V domains shown)
VH: EVQLVESGGGLVQPGGSLRLSCAASGFTVSSNYMSWVRQAPGKGLEWVSVIYPGGSTFYADSVKGRFTISRDNSKNTLYLQMNSLRAEDTAVYYCARDQRDFAWGQGTLVTVSS
VL: DIQMTQSPSSLSASVGDRVTITCQASQDISNYLNWYQQKPGKAPKLLIYDASNLETGVPSRFSGSGSGTDFTFTISGLQPEDIATYYCQQYDNLPPTFGQGTRLEIKR
Work on B13 yielded an MFI [1] of 29600 MFI and an MFI [2] of 28700 MFI.

B14: mAb10954 (antibody, V domains shown)
VH: EVQLVESGGGLVQPGGSLRLSCAASGITVSSNYMSWVRQAPGKGLEWVSLIYSGGSTYYADSVKGRFTISRDNSKNTLYLQMNSLRVEDTAVYYCARDHGMAAAGYNYWGQGTLVTVSS
VL: DIQMTQSPSSLSASVGDRVTITCQASQDINKYLNWYQQKPGKAPKLLIYDASNLETGVPSRFSGSGSGTDFTFTINSLQPEDFATYFCQQYDNLPPAFGQGTKVEIKR
B14 gave an MFI [1] of 31300 MFI and an MFI [2] of 31800 MFI.

B15: mAb10933 (antibody, V domains shown)
VH: QVQLVESGGGLVKPGGSLRLSCAASGFTFSDYYMSWIRQAPGKGLEWVSYITYSGSTIYYADSVKGRFTISRDNAKSSLYLQMNSLRAEDTAVYYCARDRGTTMVPFDYWGQGTLVTVSS
VL: DIQMTQSPSSLSASVGDRVTITCQASQDITNYLNWYQQKPGKAPKLLIYAASNLETGVPSRFSGSGSGTDFTFTISGLQPEDIATYYCQQYDNLPLTFGGGTKVEIKR
Work on B15 yielded an MFI [4] of 18 MFI.

B16: mAb10955 (antibody, V domains shown)
VH: EVQLVESGGGLVQPGGSLRVSCAASGFTVSRNYMSWVRQAPGKGLEWVSVIYSGGSTFYADSVKGRFTISRDNSKNTLYLQMNSLRAEDTAIYYCARYIPRFDPWGQGTLVTVSS
VL: DIQMTQSPSSLSASVGDRVTITCQASQDISNYLNWFQQKPGRAPKLLIYDASNLETGVPSRFSGSGSGTDFTFTISSLQPEDIATYYCQQYDNLPITFGQGTRLEIKR
Work on B16 yielded an MFI [1] of 30800 MFI and an MFI [2] of 31200 MFI.

B17: mAb10982 (antibody, V domains shown)
VH: EVQLVESGGGLVQPGGSLRLSCAASGLTVSSNYMSWVRQAPGKGLEWVSVIYSGGTTYYADSVKGRFTISRHNSKNTLSLQMNSLRAEDTAVYYCARGEGANYYGMDVWGQGTTVTVSS
VL: QSVLTQPPSVSGAPGQRVTISCTGSSSNIGTGYDVHWYQQLPGTAPKLLIYGNSNRPSGVPDRFSGSKSGTSASLAITGLQAEDEADYYCQSYDSSLSGYVVFGGGTKLTVLG
B17 was tested, and the MFI [1] was 23300 MFI, the MFI [2] was 23000 MFI and the MFI [4] was 24 MFI.

B18: mAb10939 (antibody, V domains shown)
VH: EVQLVESGGGLVQPGGSLRLSCAASGLTVSSNYMNWVRQVPGKGLEWVSVIYSGGSKFYVDSVKGRFTISRHNSKNTLYLQMNSLRPEDTAVYYCTRDAQYYGMDVWGQGTTVTVSS
VL: DIQMTQSPSSLSASVGDRVTITCRASQSISTYLHWYQQKPGEAPKLLIYAASSLQSGVPSRFSGSGSGTDFTLTISSLQPEDFATYYCQQSYSTPPEIFGQGTKLEIKR
Binder B18 has an MFI [1] of 33900 MFI and an MFI [2] of 32900 MFI.

B19: mAb10956 (antibody, V domains shown)
VH: EVQLVESGGGLVQPGGSLRLSCAASGLTVSSNYMSWVRQAPGKGLEWVSVIYSGGSTFYADSVKGRFTISRDNSKNTLYLQMNSLRAEDTAVYYCARDLIKYGMDVWGQGTTVTVSS
VL: not shown
Binder B19 has an MFI [1] of 28300 MFI and an MFI [2] of 30200 MFI.

— patent publication US20240043504A1 (published 2024)
